Measurements reported in the supplement of paper PMC9112550, “Optimization of the antimicrobial peptide Bac7 by deep mutational scanning” (BMC Biology, 2022).

Test system: Escherichia coli TOP10
Experiment: shrunken log2 fold change of peptide-encoding DNA abundance (4.5 h post-induction vs induction); higher = less antimicrobial activity (less host growth inhibition)
Settings: time post-induction: 4.5 h; library: site-saturation at positions 5, 18, 19, 20
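Also: peptides expressed intracellularly from a pBAD plasmid library in pooled LB shake-flask culture, induced with 0.3% L-arabinose, DNA abundance read by NGS, three biological replicates, DESeq2 with apeglm shrinkage.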

| Sequence | shrunken log2 fold change |
| --- | --- |
| RRIRIRPPRLPRPRPRPWEAPRP | 0.0112 |
| RRIRNRPPRLPRPRPRPPELPRP | 0.142 |
| RRIRYRPPRLPRPRPRPEGMPRP | 0.0329 |
| RRIRSRPPRLPRPRPRPSQAPRP | -0.0295 |
| RRIRWRPPRLPRPRPRPYDSPRP | -0.377 |
| RRIRTRPPRLPRPRPRPPYGPRP | -0.195 |
| RRIRLRPPRLPRPRPRPCLEPRP | -0.052 |
| RRIRYRPPRLPRPRPRPGNIPRP | -0.153 |
| RRIRCRPPRLPRPRPRPDTPPRP | 0.0764 |
| RRIRFRPPRLPRPRPRPYIWPRP | -0.425 |
| RRIRSRPPRLPRPRPRPCMPPRP | -0.375 |
| RRIRVRPPRLPRPRPRPVSVPRP | 0.0195 |
| RRIRVRPPRLPRPRPRPPANPRP | 0.3 |
| RRIRHRPPRLPRPRPRPLGNPRP | 0.017 |
| RRIRTRPPRLPRPRPRPWRNPRP | -0.253 |
| RRIRARPPRLPRPRPRPQRYPRP | -0.071 |
| RRIRSRPPRLPRPRPRPAMVPRP | -0.274 |
| RRIRSRPPRLPRPRPRPFIFPRP | -0.343 |
| RRIRFRPPRLPRPRPRPQDWPRP | -0.12 |
| RRIRCRPPRLPRPRPRPPCKPRP | -0.189 |
| RRIRTRPPRLPRPRPRPYPAPRP | -0.277 |
| RRIRERPPRLPRPRPRPKMCPRP | -0.149 |
| RRIRLRPPRLPRPRPRPTDEPRP | -0.111 |
| RRIRSRPPRLPRPRPRPDVFPRP | -0.098 |
| RRIRARPPRLPRPRPRPELQPRP | 0.731 |

| Sequence | shrunken log2 fold change |
| --- | --- |
| RRIRARPPRLPRPRPRPNTKPRP | -0.124 |
| RRIRIRPPRLPRPRPRPAKTPRP | 0.0509 |
| RRIRHRPPRLPRPRPRPDRVPRP | -0.0183 |
| RRIRMRPPRLPRPRPRPESGPRP | 0.908 |
| RRIRSRPPRLPRPRPRPGIGPRP | 1.62 |
| RRIRFRPPRLPRPRPRPRINPRP | -0.314 |
| RRIRNRPPRLPRPRPRPSFIPRP | -0.934 |
| RRIRKRPPRLPRPRPRPKLRPRP | -0.0198 |
| RRIRDRPPRLPRPRPRPIEHPRP | -0.172 |
| RRIRLRPPRLPRPRPRPAGEPRP | -0.0968 |
| RRIRIRPPRLPRPRPRPKSKPRP | -0.298 |
| RRIRNRPPRLPRPRPRPEDEPRP | -0.0168 |
| RRIRGRPPRLPRPRPRPLKRPRP | 0.216 |
| RRIRKRPPRLPRPRPRPCGYPRP | 0.25 |
| RRIRERPPRLPRPRPRPVSAPRP | 0.148 |
| RRIRRRPPRLPRPRPRPTSKPRP | 0.162 |
| RRIRWRPPRLPRPRPRPWMQPRP | -0.147 |
| RRIRSRPPRLPRPRPRPWDEPRP | -0.0358 |
| RRIRRRPPRLPRPRPRPFRPPRP | 0.317 |
| RRIRYRPPRLPRPRPRPWKYPRP | -0.0732 |
| RRIRERPPRLPRPRPRPTFDPRP | -0.066 |
| RRIRGRPPRLPRPRPRPRQPPRP | 0.283 |
| RRIRMRPPRLPRPRPRPPQWPRP | 0.982 |
| RRIRARPPRLPRPRPRPMHQPRP | 0.0908 |
| RRIRIRPPRLPRPRPRPTQSPRP | 0.575 |
